Numbered stars: 1 amine (or outer) side, 2 acyl side, 3 side chain; on linkers, the order of the positions; unused ones are H or OH. Bridge positions count the residues as written; N and C are the ends. Side chains are listed from the residue outwards. Ends that are not written are not given here. * marks the point of attachment. C20 diacid = O=C(O)CCCCCCCCCCCCCCCCCCC(=O)*; C18 diacid = O=C(O)CCCCCCCCCCCCCCCCC(=O)*; C16 diacid = O=C(O)CCCCCCCCCCCCCCC(=O)*; γGlu = O=C(O)[C@H](CCC(=O)[*:2])N[*:1]; C14 diacid = O=C(O)CCCCCCCCCCCCC(=O)*; AEEA = NCCOCCOCC(=O)O
T1: human amylin receptor (amylin 3(a) receptor: human calcitonin receptor coexpressed with RAMP-3) (human, UniProt P30988 25-474; O60896 24-148)
T1 sequence (looked up) 1: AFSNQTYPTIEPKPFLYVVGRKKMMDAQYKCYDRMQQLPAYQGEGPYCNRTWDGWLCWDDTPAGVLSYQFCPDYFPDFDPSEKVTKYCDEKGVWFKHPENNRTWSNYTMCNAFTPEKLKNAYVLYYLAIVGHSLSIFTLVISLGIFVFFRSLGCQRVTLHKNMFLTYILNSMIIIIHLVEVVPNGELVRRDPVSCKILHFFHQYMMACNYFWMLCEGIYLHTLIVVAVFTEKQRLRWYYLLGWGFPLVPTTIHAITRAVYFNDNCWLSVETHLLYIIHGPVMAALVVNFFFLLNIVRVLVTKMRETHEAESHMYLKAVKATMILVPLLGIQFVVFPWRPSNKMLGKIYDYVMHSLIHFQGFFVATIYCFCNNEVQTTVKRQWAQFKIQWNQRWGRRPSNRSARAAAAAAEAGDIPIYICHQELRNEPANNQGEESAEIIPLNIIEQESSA
T1 sequence (looked up) 2: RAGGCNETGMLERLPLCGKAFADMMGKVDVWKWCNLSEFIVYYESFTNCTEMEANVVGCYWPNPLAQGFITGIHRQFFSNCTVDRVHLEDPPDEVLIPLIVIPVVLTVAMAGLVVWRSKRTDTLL

T2: human calcitonin receptor (human, UniProt P30988 25-474)
T2 sequence (looked up): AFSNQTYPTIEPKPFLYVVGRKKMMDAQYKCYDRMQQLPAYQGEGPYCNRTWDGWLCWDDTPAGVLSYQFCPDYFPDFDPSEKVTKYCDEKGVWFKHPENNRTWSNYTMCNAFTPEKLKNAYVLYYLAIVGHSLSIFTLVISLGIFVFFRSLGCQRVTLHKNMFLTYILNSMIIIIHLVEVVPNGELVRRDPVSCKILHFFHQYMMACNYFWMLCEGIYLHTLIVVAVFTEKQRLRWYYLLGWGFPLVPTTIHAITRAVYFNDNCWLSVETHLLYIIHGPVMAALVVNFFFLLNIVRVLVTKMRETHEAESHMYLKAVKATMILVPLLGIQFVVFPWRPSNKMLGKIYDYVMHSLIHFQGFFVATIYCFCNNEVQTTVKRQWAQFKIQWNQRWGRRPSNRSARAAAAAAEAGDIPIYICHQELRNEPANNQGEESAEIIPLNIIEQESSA


Assays:
[1] = target: T1, human amylin receptor (amylin 3(a) …); assay: cell-based or functional assay
[2] = target: T2, human calcitonin receptor; assay: cell-based or functional assay

Binder	hAmylin-R funct. EC50 (pM) [1] [pM]	Ratio hCT/hAmylin funct. [2]	hCTR funct. EC50 (pM) [2] [pM]
K([AEEA-AEEA-γGlu-C20 diacid])CNTATCATQRLANFLRHSSPNFGAIPSSTNVGHNTY-NH2 (disulfide 2-7; N-terminus assumed; SMILES CC[C@H](C)[C@H](NC(=O)[C@H](C)NC(=O)CNC(=O)[C@H](Cc1ccccc1)NC(=O)[C@H](CC(N)=O)NC(=O)[C@@H]1CCCN1C(=O)[C@H](CO)NC(=O)[C@H](CO)NC(=O)[C@H](Cc1c[nH]cn1)NC(=O)[C@H](CCCNC(=N)N)NC(=O)[C@H](CC(C)C)NC(=O)[C@H](Cc1ccccc1)NC(=O)[C@H](CC(N)=O)NC(=O)[C@H](C)NC(=O)[C@H](CC(C)C)NC(=O)[C@H](CCCNC(=N)N)NC(=O)[C@H](CCC(N)=O)NC(=O)[C@@H](NC(=O)[C@H](C)NC(=O)[C@@H]1CSSC[C@H](NC(=O)[C@@H](N)CCCCNC(=O)COCCOCCNC(=O)COCCOCCNC(=O)CC[C@H](NC(=O)CCCCCCCCCCCCCCCCCCC(=O)O)C(=O)O)C(=O)N[C@@H](CC(N)=O)C(=O)N[C@@H]([C@@H](C)O)C(=O)N[C@@H](C)C(=O)N[C@@H]([C@@H](C)O)C(=O)N1)[C@@H](C)O)C(=O)N1CCC[C@H]1C(=O)N[C@@H](CO)C(=O)N[C@@H](CO)C(=O)N[C@H](C(=O)N[C@@H](CC(N)=O)C(=O)N[C@H](C(=O)NCC(=O)N[C@@H](Cc1c[nH]cn1)C(=O)N[C@@H](CC(N)=O)C(=O)N[C@H](C(=O)N[C@@H](Cc1ccc(O)cc1)C(N)=O)[C@@H](C)O)C(C)C)[C@@H](C)O, also called compound 97)	356	33	11800
K([γGlu-C14 diacid])CNTATCATQRLANFLRHSSPNFGAIPSSTNVGHNTY-NH2 (disulfide 2-7; N-terminus assumed; SMILES CC[C@H](C)[C@H](NC(=O)[C@H](C)NC(=O)CNC(=O)[C@H](Cc1ccccc1)NC(=O)[C@H](CC(N)=O)NC(=O)[C@@H]1CCCN1C(=O)[C@H](CO)NC(=O)[C@H](CO)NC(=O)[C@H](Cc1c[nH]cn1)NC(=O)[C@H](CCCNC(=N)N)NC(=O)[C@H](CC(C)C)NC(=O)[C@H](Cc1ccccc1)NC(=O)[C@H](CC(N)=O)NC(=O)[C@H](C)NC(=O)[C@H](CC(C)C)NC(=O)[C@H](CCCNC(=N)N)NC(=O)[C@H](CCC(N)=O)NC(=O)[C@@H](NC(=O)[C@H](C)NC(=O)[C@@H]1CSSC[C@H](NC(=O)[C@@H](N)CCCCNC(=O)CC[C@H](NC(=O)CCCCCCCCCCCCC(=O)O)C(=O)O)C(=O)N[C@@H](CC(N)=O)C(=O)N[C@@H]([C@@H](C)O)C(=O)N[C@@H](C)C(=O)N[C@@H]([C@@H](C)O)C(=O)N1)[C@@H](C)O)C(=O)N1CCC[C@H]1C(=O)N[C@@H](CO)C(=O)N[C@@H](CO)C(=O)N[C@H](C(=O)N[C@@H](CC(N)=O)C(=O)N[C@H](C(=O)NCC(=O)N[C@@H](Cc1c[nH]cn1)C(=O)N[C@@H](CC(N)=O)C(=O)N[C@H](C(=O)N[C@@H](Cc1ccc(O)cc1)C(N)=O)[C@@H](C)O)C(C)C)[C@@H](C)O) [N^ε1-[(4S)-4-carboxy-4-(13-carboxytridecanoylamino)butanoyl]-[Arg17,Pro21,Pro27,His34]-h-amylin]	28	38.8	1090
K([γGlu-C16 diacid])CNTATCATQRLANFLRHSSPNFGAIPSSTNVGHNTY-NH2 (disulfide 2-7; N-terminus assumed; SMILES CC[C@H](C)[C@H](NC(=O)[C@H](C)NC(=O)CNC(=O)[C@H](Cc1ccccc1)NC(=O)[C@H](CC(N)=O)NC(=O)[C@@H]1CCCN1C(=O)[C@H](CO)NC(=O)[C@H](CO)NC(=O)[C@H](Cc1c[nH]cn1)NC(=O)[C@H](CCCNC(=N)N)NC(=O)[C@H](CC(C)C)NC(=O)[C@H](Cc1ccccc1)NC(=O)[C@H](CC(N)=O)NC(=O)[C@H](C)NC(=O)[C@H](CC(C)C)NC(=O)[C@H](CCCNC(=N)N)NC(=O)[C@H](CCC(N)=O)NC(=O)[C@@H](NC(=O)[C@H](C)NC(=O)[C@@H]1CSSC[C@H](NC(=O)[C@@H](N)CCCCNC(=O)CC[C@H](NC(=O)CCCCCCCCCCCCCCC(=O)O)C(=O)O)C(=O)N[C@@H](CC(N)=O)C(=O)N[C@@H]([C@@H](C)O)C(=O)N[C@@H](C)C(=O)N[C@@H]([C@@H](C)O)C(=O)N1)[C@@H](C)O)C(=O)N1CCC[C@H]1C(=O)N[C@@H](CO)C(=O)N[C@@H](CO)C(=O)N[C@H](C(=O)N[C@@H](CC(N)=O)C(=O)N[C@H](C(=O)NCC(=O)N[C@@H](Cc1c[nH]cn1)C(=O)N[C@@H](CC(N)=O)C(=O)N[C@H](C(=O)N[C@@H](Cc1ccc(O)cc1)C(N)=O)[C@@H](C)O)C(C)C)[C@@H](C)O) [N^ε1-[(4S)-4-carboxy-4-(15-carboxypentadecanoylamino)butanoyl]-[Arg17,Pro21,Pro27,His34]-h-amylin]	34	65.1	2210
K([γGlu-C18 diacid])CNTATCATQRLANFLRHSSPNFGAIPSSTNVGHNTY-NH2 (disulfide 2-7; N-terminus assumed; SMILES CC[C@H](C)[C@H](NC(=O)[C@H](C)NC(=O)CNC(=O)[C@H](Cc1ccccc1)NC(=O)[C@H](CC(N)=O)NC(=O)[C@@H]1CCCN1C(=O)[C@H](CO)NC(=O)[C@H](CO)NC(=O)[C@H](Cc1c[nH]cn1)NC(=O)[C@H](CCCNC(=N)N)NC(=O)[C@H](CC(C)C)NC(=O)[C@H](Cc1ccccc1)NC(=O)[C@H](CC(N)=O)NC(=O)[C@H](C)NC(=O)[C@H](CC(C)C)NC(=O)[C@H](CCCNC(=N)N)NC(=O)[C@H](CCC(N)=O)NC(=O)[C@@H](NC(=O)[C@H](C)NC(=O)[C@@H]1CSSC[C@H](NC(=O)[C@@H](N)CCCCNC(=O)CC[C@H](NC(=O)CCCCCCCCCCCCCCCCC(=O)O)C(=O)O)C(=O)N[C@@H](CC(N)=O)C(=O)N[C@@H]([C@@H](C)O)C(=O)N[C@@H](C)C(=O)N[C@@H]([C@@H](C)O)C(=O)N1)[C@@H](C)O)C(=O)N1CCC[C@H]1C(=O)N[C@@H](CO)C(=O)N[C@@H](CO)C(=O)N[C@H](C(=O)N[C@@H](CC(N)=O)C(=O)N[C@H](C(=O)NCC(=O)N[C@@H](Cc1c[nH]cn1)C(=O)N[C@@H](CC(N)=O)C(=O)N[C@H](C(=O)N[C@@H](Cc1ccc(O)cc1)C(N)=O)[C@@H](C)O)C(C)C)[C@@H](C)O) [N^ε1-[(4S)-4-carboxy-4-(17-carboxyheptadecanoylamino)butanoyl]-[Arg17,Pro21,Pro27,His34]-h-amylin]	96	60.9	5850

More lines, now with the values ahead:

hAmylin-R funct. EC50 (pM) [1] [pM]	Ratio hCT/hAmylin funct. [2]	hCTR funct. EC50 (pM) [2] [pM]	Binder
82	10	818	{C20 diacid-γGlu}-GRCNTATCATQRLAHFLRHSSPNFGAIPSSTNVGSNTY-NH2 (disulfide 3-8; SMILES CC[C@H](C)[C@H](NC(=O)[C@H](C)NC(=O)CNC(=O)[C@H](Cc1ccccc1)NC(=O)[C@H](CC(N)=O)NC(=O)[C@@H]1CCCN1C(=O)[C@H](CO)NC(=O)[C@H](CO)NC(=O)[C@H](Cc1c[nH]cn1)NC(=O)[C@H](CCCNC(=N)N)NC(=O)[C@H](CC(C)C)NC(=O)[C@H](Cc1ccccc1)NC(=O)[C@H](Cc1c[nH]cn1)NC(=O)[C@H](C)NC(=O)[C@H](CC(C)C)NC(=O)[C@H](CCCNC(=N)N)NC(=O)[C@H](CCC(N)=O)NC(=O)[C@@H](NC(=O)[C@H](C)NC(=O)[C@@H]1CSSC[C@H](NC(=O)[C@H](CCCNC(=N)N)NC(=O)CNC(=O)CC[C@H](NC(=O)CCCCCCCCCCCCCCCCCCC(=O)O)C(=O)O)C(=O)N[C@@H](CC(N)=O)C(=O)N[C@@H]([C@@H](C)O)C(=O)N[C@@H](C)C(=O)N[C@@H]([C@@H](C)O)C(=O)N1)[C@@H](C)O)C(=O)N1CCC[C@H]1C(=O)N[C@@H](CO)C(=O)N[C@@H](CO)C(=O)N[C@H](C(=O)N[C@@H](CC(N)=O)C(=O)N[C@H](C(=O)NCC(=O)N[C@@H](CO)C(=O)N[C@@H](CC(N)=O)C(=O)N[C@H](C(=O)N[C@@H](Cc1ccc(O)cc1)C(N)=O)[C@@H](C)O)C(C)C)[C@@H](C)O, 38 residues: Gly added before position 1 of human amylin; also called compound 99)
40	36.9	1480	K([AEEA-C20 diacid])CNTATCATQRLANFLRHSSPNFGAIPSSTNVGHNTY-NH2 (disulfide 2-7; N-terminus assumed; SMILES CC[C@H](C)[C@H](NC(=O)[C@H](C)NC(=O)CNC(=O)[C@H](Cc1ccccc1)NC(=O)[C@H](CC(N)=O)NC(=O)[C@@H]1CCCN1C(=O)[C@H](CO)NC(=O)[C@H](CO)NC(=O)[C@H](Cc1c[nH]cn1)NC(=O)[C@H](CCCNC(=N)N)NC(=O)[C@H](CC(C)C)NC(=O)[C@H](Cc1ccccc1)NC(=O)[C@H](CC(N)=O)NC(=O)[C@H](C)NC(=O)[C@H](CC(C)C)NC(=O)[C@H](CCCNC(=N)N)NC(=O)[C@H](CCC(N)=O)NC(=O)[C@@H](NC(=O)[C@H](C)NC(=O)[C@@H]1CSSC[C@H](NC(=O)[C@@H](N)CCCCNC(=O)COCCOCCNC(=O)CCCCCCCCCCCCCCCCCCC(=O)O)C(=O)N[C@@H](CC(N)=O)C(=O)N[C@@H]([C@@H](C)O)C(=O)N[C@@H](C)C(=O)N[C@@H]([C@@H](C)O)C(=O)N1)[C@@H](C)O)C(=O)N1CCC[C@H]1C(=O)N[C@@H](CO)C(=O)N[C@@H](CO)C(=O)N[C@H](C(=O)N[C@@H](CC(N)=O)C(=O)N[C@H](C(=O)NCC(=O)N[C@@H](Cc1c[nH]cn1)C(=O)N[C@@H](CC(N)=O)C(=O)N[C@H](C(=O)N[C@@H](Cc1ccc(O)cc1)C(N)=O)[C@@H](C)O)C(C)C)[C@@H](C)O, also called compound 91) [N^ε1-[2-[2-[2-(19-carboxynonadecanoylamino)ethoxy]ethoxy]acetyl]-[Arg17,Pro21,Pro27,His34]-h-amylin]

Source: patent US20140087995A1 (published 2014)
